Experimental data from paper PMC11417369, “DNA sequence and chromatin differentiate sequence-specific transcription factor binding in the human malaria parasite Plasmodium falciparum”.

T1: AP2-HC D1 (Plasmodium falciparum, UniProt Q8IKR9 1316-1374)
T1 sequence: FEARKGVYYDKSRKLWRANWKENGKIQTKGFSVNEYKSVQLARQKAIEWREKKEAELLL


biological target: T1, AP2-HC D1; experiment: gcPBM; about 25 ug protein; PBS, 1% milk, 0.2 mg/ml BSA, salmon testes DNA, 0.03% Triton X-100; settings: tags: N-terminal GST (pGEX-4T-1), kept; label: surface-attached array probe

Binder	binding signal
CACACA_site7113 (dsDNA) DNA 1: TACGTTCTGATATATACACACCTGGTATTAATTATG DNA 2: CATAATTAATACCAGGTGTGTATATATCAGAACGTA	10 ln median PBM intensity, better of two orientations
CACACA_negctrl_site1293 (dsDNA) DNA 1: TCATATTCCAAAAAAAAAAAAAAAAAAAAAAAAATA DNA 2: TATTTTTTTTTTTTTTTTTTTTTTTTTGGAATATGA	9.15 ln median PBM intensity, better of two orientations
CACACA_negctrl_site488 (dsDNA) DNA 1: TTTTTAATAAAATGATTGATAATTATTAAATTAAAA DNA 2: TTTTAATTTAATAATTATCAATCATTTTATTAAAAA	9.22 ln median PBM intensity, better of two orientations
CACACA_negctrl_site452 (dsDNA) DNA 1: AATATATGATAATTTTTTTTTTTTTTTTTTAAATAT DNA 2: ATATTTAAAAAAAAAAAAAAAAAATTATCATATATT	9.23 ln median PBM intensity, better of two orientations
CACACA_negctrl_site1727 (dsDNA) DNA 1: TAACCACAAAAATAAAATCAAAAAAAAAAAAAAAAA DNA 2: TTTTTTTTTTTTTTTTTGATTTTATTTTTGTGGTTA	8.75 ln median PBM intensity, better of two orientations
CACACA_site382 (dsDNA) DNA 1: GATATATATATTCACACACACATGGAAATATATATA DNA 2: TATATATATTTCCATGTGTGTGTGAATATATATATC	10.1 ln median PBM intensity, better of two orientations
CACACA_negctrl_site822 (dsDNA) DNA 1: TTTTTTCAATAAATAATCGTATATTGAATAATAATA DNA 2: TATTATTATTCAATATACGATTATTTATTGAAAAAA	9.23 ln median PBM intensity, better of two orientations
CACACA_negctrl_site1354 (dsDNA) DNA 1: TCTTTTTTTTCTTTTTTTTTATTTAAATATCAAGTA DNA 2: TACTTGATATTTAAATAAAAAAAAAGAAAAAAAAGA	9.2 ln median PBM intensity, better of two orientations
CACACA_negctrl_site1196 (dsDNA) DNA 1: AAAAATTGAATTTTTTTTTTTTTTTTGAGAAGGAAA DNA 2: TTTCCTTCTCAAAAAAAAAAAAAAAATTCAATTTTT	9.23 ln median PBM intensity, better of two orientations
CACACA_negctrl_site1298 (dsDNA) DNA 1: ATATTATCATTTTTTTTAATGGAAAAAAAAAAAAAA DNA 2: TTTTTTTTTTTTTTCCATTAAAAAAAATGATAATAT	9.12 ln median PBM intensity, better of two orientations
CACACA_negctrl_site1226 (dsDNA) DNA 1: TGTTATTTAAATAATTCTTTTTAAAAGATGAATTAT DNA 2: ATAATTCATCTTTTAAAAAGAATTATTTAAATAACA	9.21 ln median PBM intensity, better of two orientations
CACACA_negctrl_site191 (dsDNA) DNA 1: TTGTTCATCTTTTTTTTTTTTTTTTTTTTTTAAATC DNA 2: GATTTAAAAAAAAAAAAAAAAAAAAAAGATGAACAA	9.2 ln median PBM intensity, better of two orientations
CACACA_negctrl_site1670 (dsDNA) DNA 1: TTTATTTAAAAAATAAAAAAAAAAAAAAAAAAAAAA DNA 2: TTTTTTTTTTTTTTTTTTTTTTATTTTTTAAATAAA	8.32 ln median PBM intensity, better of two orientations
CACACA_negctrl_site34 (dsDNA) DNA 1: TTATGTATATTATAAATTAATACATTTAAATTAATA DNA 2: TATTAATTTAAATGTATTAATTTATAATATACATAA	9.28 ln median PBM intensity, better of two orientations
CACACA_negctrl_site959 (dsDNA) DNA 1: ATTTTTTTTTAATGCAAAAGGTGATGATCGGTCATA DNA 2: TATGACCGATCATCACCTTTTGCATTAAAAAAAAAT	9.27 ln median PBM intensity, better of two orientations
CACACA_negctrl_site792 (dsDNA) DNA 1: AAAGAAAAAGAAAAAGAAAAATTAGAATATAAAATA DNA 2: TATTTTATATTCTAATTTTTCTTTTTCTTTTTCTTT	9.29 ln median PBM intensity, better of two orientations
CACACA_negctrl_site143 (dsDNA) DNA 1: ATAAACAGAAAAAAAAAAAAAAAAAAAAAAAAAAAA DNA 2: TTTTTTTTTTTTTTTTTTTTTTTTTTTTCTGTTTAT	8.89 ln median PBM intensity, better of two orientations
CACACA_negctrl_site292 (dsDNA) DNA 1: AAAAAAAAAAAAAAAAAAAAAAAAAAAAAAAAAAAG DNA 2: CTTTTTTTTTTTTTTTTTTTTTTTTTTTTTTTTTTT	9.04 ln median PBM intensity, better of two orientations
CACACA_negctrl_site59 (dsDNA) DNA 1: AAAAAAAAAAAAAAAAAAAAAAAAAAAAATAAAAAA DNA 2: TTTTTTATTTTTTTTTTTTTTTTTTTTTTTTTTTTT	9.2 ln median PBM intensity, better of two orientations
CACACA_site8055 (dsDNA) DNA 1: ATCTAAATAAAGTTAACACACACATAATATATATAT DNA 2: ATATATATATTATGTGTGTGTTAACTTTATTTAGAT	10.1 ln median PBM intensity, better of two orientations
CACACA_negctrl_site1253 (dsDNA) DNA 1: TAATATTTCGTTAAGTTTTAAAGAAAAAAAAAAAAA DNA 2: TTTTTTTTTTTTTCTTTAAAACTTAACGAAATATTA	9.21 ln median PBM intensity, better of two orientations
CACACA_site8492 (dsDNA) DNA 1: AAAAAAAAAAAAAAAACACACACAAATTTAATATAT DNA 2: ATATATTAAATTTGTGTGTGTTTTTTTTTTTTTTTT	10.1 ln median PBM intensity, better of two orientations

Binder	binding signal
CACACA_negctrl_site383 (dsDNA) DNA 1: GGAACCATCCAAAAAAAAAAAAAAAATAATAATAAT DNA 2: ATTATTATTATTTTTTTTTTTTTTTTGGATGGTTCC	9.18 ln median PBM intensity, better of two orientations
CACACA_negctrl_site1524 (dsDNA) DNA 1: TTTTTTTTTTTTTTTTTTTTACCCCTTTTTCAAAAA DNA 2: TTTTTGAAAAAGGGGTAAAAAAAAAAAAAAAAAAAA	8.65 ln median PBM intensity, better of two orientations
CACACA_site3408 (dsDNA) DNA 1: GATCTATACATGGGGACACACATCACTCTATATTTT DNA 2: AAAATATAGAGTGATGTGTGTCCCCATGTATAGATC	10.1 ln median PBM intensity, better of two orientations
CACACA_negctrl_site388 (dsDNA) DNA 1: TTATTTAAAATTTTTATGCGTATATATATAGGAACA DNA 2: TGTTCCTATATATATACGCATAAAAATTTTAAATAA	9.3 ln median PBM intensity, better of two orientations
CACACA_negctrl_site1343 (dsDNA) DNA 1: TTTTAAAAAAAAAAAAAAAAAAAAAAAAAAAAAAAA DNA 2: TTTTTTTTTTTTTTTTTTTTTTTTTTTTTTTTAAAA	8.78 ln median PBM intensity, better of two orientations
CACACA_negctrl_site1657 (dsDNA) DNA 1: TATTACATTATTCAAAAAAATTTATATGGTTATAGG DNA 2: CCTATAACCATATAAATTTTTTTGAATAATGTAATA	9.24 ln median PBM intensity, better of two orientations
CACACA_negctrl_site718 (dsDNA) DNA 1: TATAACATTTTTTTCAAAATAGCTTTAGAAATAAAG DNA 2: CTTTATTTCTAAAGCTATTTTGAAAAAAATGTTATA	9.31 ln median PBM intensity, better of two orientations
CACACA_negctrl_site1615 (dsDNA) DNA 1: TTTTTTTGCATGAGCAATAAAAAAGGCTTGTTCAAA DNA 2: TTTGAACAAGCCTTTTTTATTGCTCATGCAAAAAAA	9.03 ln median PBM intensity, better of two orientations
CACACA_site6743 (dsDNA) DNA 1: AAGAAGCATAAATGTACACACATATTTATATATCAA DNA 2: TTGATATATAAATATGTGTGTACATTTATGCTTCTT	10.1 ln median PBM intensity, better of two orientations
CACACA_negctrl_site819 (dsDNA) DNA 1: TGATTATATAAAAAAAAGAAAAAAAAAAAAAAAAAA DNA 2: TTTTTTTTTTTTTTTTTTCTTTTTTTTATATAATCA	9.07 ln median PBM intensity, better of two orientations
CACACA_negctrl_site1113 (dsDNA) DNA 1: TTTTTTTTTAAAGAAAATAAAAATATGTACTTGACA DNA 2: TGTCAAGTACATATTTTTATTTTCTTTAAAAAAAAA	9.17 ln median PBM intensity, better of two orientations
CACACA_negctrl_site273 (dsDNA) DNA 1: TTTTTTTTTTTTTTTTTTTTTTGTGAAACTAAGTAA DNA 2: TTACTTAGTTTCACAAAAAAAAAAAAAAAAAAAAAA	8.92 ln median PBM intensity, better of two orientations
CACACA_site1882 (dsDNA) DNA 1: ATATAGATCTACACTGCACACATTTTTAACACTGCT DNA 2: AGCAGTGTTAAAAATGTGTGCAGTGTAGATCTATAT	10 ln median PBM intensity, better of two orientations
CACACA_negctrl_site585 (dsDNA) DNA 1: TTTTTTTCTTGTTTTAAATAATATACTGGAAAAAAA DNA 2: TTTTTTTCCAGTATATTATTTAAAACAAGAAAAAAA	8.87 ln median PBM intensity, better of two orientations
CACACA_negctrl_site1514 (dsDNA) DNA 1: GAATAAAAAAAAAAAAAAATTTATTTTATAATAAAA DNA 2: TTTTATTATAAAATAAATTTTTTTTTTTTTTTATTC	9.25 ln median PBM intensity, better of two orientations
CACACA_negctrl_site1057 (dsDNA) DNA 1: TGATTTTTTTTTTTTTTTTTTTTTTTTTTAGTTTGC DNA 2: GCAAACTAAAAAAAAAAAAAAAAAAAAAAAAAATCA	9.25 ln median PBM intensity, better of two orientations
CACACA_negctrl_site1718 (dsDNA) DNA 1: TTTTTGCAAAAAGAAATAATTTTATTTTAGTTCGGA DNA 2: TCCGAACTAAAATAAAATTATTTCTTTTTGCAAAAA	9.16 ln median PBM intensity, better of two orientations
CACACA_negctrl_site1410 (dsDNA) DNA 1: TAAAGTACAGGAGTAAATTGAAAAAAAAAAAAAAAA DNA 2: TTTTTTTTTTTTTTTTCAATTTACTCCTGTACTTTA	9.3 ln median PBM intensity, better of two orientations
CACACA_site9316 (dsDNA) DNA 1: CTTTTTAATAAATATACACACACAAAAAAAAAAAAA DNA 2: TTTTTTTTTTTTTGTGTGTGTATATTTATTAAAAAG	10.1 ln median PBM intensity, better of two orientations
CACACA_negctrl_site807 (dsDNA) DNA 1: TTTTTTTTTTTTTTTTTTAAACACCTCAAAAAAAAA DNA 2: TTTTTTTTTGAGGTGTTTAAAAAAAAAAAAAAAAAA	8.83 ln median PBM intensity, better of two orientations
CACACA_negctrl_site18 (dsDNA) DNA 1: TTTTTTTTTCTTCTTTTCAAATTTAAGAAATTATAA DNA 2: TTATAATTTCTTAAATTTGAAAAGAAGAAAAAAAAA	9.28 ln median PBM intensity, better of two orientations
CACACA_negctrl_site662 (dsDNA) DNA 1: TTGTATTATATTGTATTATGTTTAAATGAAAAAAAA DNA 2: TTTTTTTTCATTTAAACATAATACAATATAATACAA	9.32 ln median PBM intensity, better of two orientations
